{"source": "patent US11078259B2", "about": "“Methods and compositions for promoting thermogenic potential” (Joslin Diabetes Center, Inc., priority 2015, dated 2021)", "molecules": {"B1": {"name": "BMP7: Recombinant human BMP7, an inducer of brown adipogenesis (protein, UniProt P18075 293-431, looked up)", "Bone morphogenetic protein 7": "STGSKQRSQNRSKTPKNQEALRMANVAENSSSDQRQACKKHELYVSFRDLGWQDWIIAPEGYAAYYCEGECAFPLNSYMNATNHAIVQTLVHFINPETVPKPCCAPTQLNAISVLYFDDSSNVILKKYRNMVVRACGCH"}}, "key": {"[1]": {"test_system": "hWAT-SVF and hBAT-SVF progenitors", "assay": "BMP pre-treatment of progenitors, Q-RT-PCR for UCP1 and PPARγ in mature adipocytes", "format": "cell-based, human"}, "[2]": {"test_system": "hBAT progenitors with hUCP1-promoter-Luc/GFP", "assay": "Transplantation of UCP1 reporter progenitors into nude mice, in vivo bioluminescent imaging", "parameters": "species or system BALB/c athymic nude mice", "settings": "mice implanted with hBAT progenitors; 3.3 nM BMP7 pretreatment of progenitors 6 days", "excerpt": "FIG. 7A depicts a transgenic UCP1 reporter system for measuring UCP1 gene expression. A bicistronic luciferase and green fluorescent protein (GFP) reporter was coupled to a 4.1 kb human UCP1 promoter fragment. FIG. 7B depicts the organization of plasmid pLV.ExBi.P/Puro-hUCP1promoter-Luc(firefly)-T2A-hrGFP, which contains the UCP1 reporter system described in FIG. 7A. FIG. 7C depicts time-lapse microscopy of differentiating hBAT-SVF cells containing the UCP1 reporter system. UCP1 expression was monitored by visualization of GFP. FIG. 7D depicts that in hBAT-SVF and hWAT-SVF cells stably expressing the reporter construct, luciferase activity (Right) was strongly correlated with endogenous UCP1 gene expression (Left) during the course of differentiation (see FIG. 2A and Methods). For determination of UCP1 mRNA levels, total RNAs were isolated on day 0, 2, 3, 5, 9, 12, 15 and 18; for luciferase activity assay, cell lysates were collected on day 0, 6, 9 and 18. Data are presented as fold changes compared to hWAT-SVF on day 0 (mean±s.e.m., n=3). […]\nHuman immortalized white and brown fat progenitors with hUCP1-promoter-Luc/GFP were grown in the presence and absence of 3.3 nM BMP7 for 6 days to reach confluence. […] The luminescence intensity in regions of interest from each image was quantified to examine the viability of the implanted cells. […]"}}, "note": "“Also recorded” adds a separate entry of the source.", "data": [{"molecule": "B1", "values": [{"measurement": "UCP1 expression in mature adipocytes", "setting": "[1]; hWAT-SVF from both subjects and hBAT-SVF from Subject 2, 3.3 nM BMP7 pre-exposure 6 days", "result": "increased"}, {"measurement": "PPARγ expression", "setting": "[1]; mature brown adipocytes from Subject 2 only, BMP7 pretreatment", "result": "augmented"}, {"measurement": "luciferase activity (UCP1 reporter) in vivo", "setting": "[2]", "result": "further induced; also recorded: increased further"}]}]}
